Test results from the Human Domainome abundance scans (Beltran et al. 2025).
± gives the uncertainty stated by the source.

B1: Ras GTPase-activating protein 1, residues 281 to 341; numbered along this chain, P20936 (parent)
chain: RRRVRAILPYTKVPDTDEISFLKGDMFIVHNELEDGWMWVTNLRTDEQGLIVEDLVEEVGR

Variants of: B1
Experiment: abundance fitness (aPCA) (normalised: wild type 0, dead -1); higher = more abundant; growth selection in yeast, the domain comes from the species named
Settings: Homo sapiens

Variant	abundance fitness
RRRVRAILPYTKVPDTDEISFLKGDMFIVHNELEPGWMWVTNLRTDEQGLIVEDLVEEVGR [D35P]	-0.126 ± 0.044
RRRVRAILPYTKVPDTDEISFLKGDMFIVHNELEHGWMWVTNLRTDEQGLIVEDLVEEVGR [D35H]	-0.038 ± 0.03
RRRVRAILPYTKVPDTDEISFLKGDMFIVHNELEIGWMWVTNLRTDEQGLIVEDLVEEVGR [D35I]	-0.487 ± 0.037
RRRVRAILPYTKVPDTDEISFLKGDMFIVHNELEFGWMWVTNLRTDEQGLIVEDLVEEVGR [D35F]	-0.182 ± 0.03
RRRVRAILPYTKVPDTDEISFLKGDMFIVHNELECGWMWVTNLRTDEQGLIVEDLVEEVGR [D35C]	-0.163 ± 0.032
RRRVRAILPYTKVPDTDEISFLKGDMFIVHNELELGWMWVTNLRTDEQGLIVEDLVEEVGR [D35L]	-0.207 ± 0.033
RRRVRAILPYTKVPDTDEISFLKGDMFIVHNELEQGWMWVTNLRTDEQGLIVEDLVEEVGR [D35Q]	0.007 ± 0.07
RRRVRAILPYTKVPDTDEISFLKGDMFIVHNELEWGWMWVTNLRTDEQGLIVEDLVEEVGR [D35W]	-0.337 ± 0.054
RRRVRAILPYTKVPDTDEISFLKGDMFIVHNELEDNWMWVTNLRTDEQGLIVEDLVEEVGR [G36N]	-0.149 ± 0.028
RRRVRAILPYTKVPDTDEISFLKGDMFIVHNELEDKWMWVTNLRTDEQGLIVEDLVEEVGR [G36K]	-0.344 ± 0.097
RRRVRAILPYTKVPDTDEISFLKGDMFIVHNELEDHWMWVTNLRTDEQGLIVEDLVEEVGR [G36H]	-0.161 ± 0.034
RRRVRAILPYTKVPDTDEISFLKGDMFIVHNELEDQWMWVTNLRTDEQGLIVEDLVEEVGR [G36Q]	-0.557 ± 0.09
RRRVRAILPYTKVPDTDEISFLKGDMFIVHNELEDFWMWVTNLRTDEQGLIVEDLVEEVGR [G36F]	-0.951 ± 0.065
RRRVRAILPYTKVPDTDEISFLKGDMFIVHNELEDIWMWVTNLRTDEQGLIVEDLVEEVGR [G36I]	-0.88 ± 0.051
RRRVRAILPYTKVPDTDEISFLKGDMFIVHNELEDRWMWVTNLRTDEQGLIVEDLVEEVGR [G36R]	-0.188 ± 0.028
RRRVRAILPYTKVPDTDEISFLKGDMFIVHNELEDWWMWVTNLRTDEQGLIVEDLVEEVGR [G36W]	-0.867 ± 0.095
RRRVRAILPYTKVPDTDEISFLKGDMFIVHNELEDVWMWVTNLRTDEQGLIVEDLVEEVGR [G36V]	-0.876 ± 0.044
RRRVRAILPYTKVPDTDEISFLKGDMFIVHNELEDDWMWVTNLRTDEQGLIVEDLVEEVGR [G36D]	-0.613 ± 0.038
RRRVRAILPYTKVPDTDEISFLKGDMFIVHNELEDPWMWVTNLRTDEQGLIVEDLVEEVGR [G36P]	-0.597 ± 0.055
RRRVRAILPYTKVPDTDEISFLKGDMFIVHNELEDCWMWVTNLRTDEQGLIVEDLVEEVGR [G36C]	-0.664 ± 0.035
RRRVRAILPYTKVPDTDEISFLKGDMFIVHNELEDLWMWVTNLRTDEQGLIVEDLVEEVGR [G36L]	-0.6 ± 0.057
RRRVRAILPYTKVPDTDEISFLKGDMFIVHNELEDMWMWVTNLRTDEQGLIVEDLVEEVGR [G36M]	-0.928 ± 0.12

Variant	abundance fitness
RRRVRAILPYTKVPDTDEISFLKGDMFIVHNELEDYWMWVTNLRTDEQGLIVEDLVEEVGR [G36Y]	-0.874 ± 0.048
RRRVRAILPYTKVPDTDEISFLKGDMFIVHNELYDGWMWVTNLRTDEQGLIVEDLVEEVGR [E34Y]	-0.188 ± 0.034
RRRVRAILPYTKVPDTDEISFLKGDMFIVHNELVDGWMWVTNLRTDEQGLIVEDLVEEVGR [E34V]	-0.089 ± 0.03
RRRVRAILPYTKVPDTDEISFLKGDMFIVHNELPDGWMWVTNLRTDEQGLIVEDLVEEVGR [E34P]	0.03 ± 0.048
RRRVRAILPYTKVPDTDEISFLKGDMFIVHNELGDGWMWVTNLRTDEQGLIVEDLVEEVGR [E34G]	-0.035 ± 0.03
RRRVRAILPYTKVPDTDEISFLKGDMFIVHNELSDGWMWVTNLRTDEQGLIVEDLVEEVGR [E34S]	-0.01 ± 0.028
RRRVRAILPYTKVPDTDEISFLKGDMFIVHNELIDGWMWVTNLRTDEQGLIVEDLVEEVGR [E34I]	-0.258 ± 0.037
RRRVRAILPYTKVPDTDEISFLKGDMFIVHNELADGWMWVTNLRTDEQGLIVEDLVEEVGR [E34A]	0.023 ± 0.04
RRRVRAILPYTKVPDTDEISFLKGDMFIVHNELLDGWMWVTNLRTDEQGLIVEDLVEEVGR [E34L]	-0.182 ± 0.033
RRRVRAILPYTKVPDTDEISFLKGDMFIVHNELKDGWMWVTNLRTDEQGLIVEDLVEEVGR [E34K]	-0.026 ± 0.064
RRRVRAILPYTKVPDTDEISFLKGDMFIVHNELTDGWMWVTNLRTDEQGLIVEDLVEEVGR [E34T]	-0.106 ± 0.041
RRRVRAILPYTKVPDTDEISFLKGDMFIVHNELWDGWMWVTNLRTDEQGLIVEDLVEEVGR [E34W]	-0.28 ± 0.066
RRRVRAILPYTKVPDTDEISFLKGDMFIVHNELRDGWMWVTNLRTDEQGLIVEDLVEEVGR [E34R]	0.065 ± 0.034
RRRVRAILPYTKVPDTDEISFLKGDMFIVHNELMDGWMWVTNLRTDEQGLIVEDLVEEVGR [E34M]	-0.159 ± 0.089
RRRVRAILPYTKVPDTDEISFLKGDMFIVHNELNDGWMWVTNLRTDEQGLIVEDLVEEVGR [E34N]	-0.004 ± 0.032
RRRVRAILPYTKVPDTDEISFLKGDMFIVHNELFDGWMWVTNLRTDEQGLIVEDLVEEVGR [E34F]	-0.238 ± 0.031
RRRVRAILPYTKVPDTDEISFLKGDMFIVHNELDDGWMWVTNLRTDEQGLIVEDLVEEVGR [E34D]	-0.033 ± 0.034
RRRVRAILPYTKVPDTDEISFLKGDMFIVHNELQDGWMWVTNLRTDEQGLIVEDLVEEVGR [E34Q]	0.074 ± 0.073
RRRVRAILPYTKVPDTDEISFLKGDMFIVHNEYEDGWMWVTNLRTDEQGLIVEDLVEEVGR [L33Y]	-0.051 ± 0.027
RRRVRAILPYTKVPDTDEISFLKGDMFIVHNEWEDGWMWVTNLRTDEQGLIVEDLVEEVGR [L33W]	-0.136 ± 0.042
RRRVRAILPYTKVPDTDEISFLKGDMFIVHNETEDGWMWVTNLRTDEQGLIVEDLVEEVGR [L33T]	-0.03 ± 0.03
RRRVRAILPYTKVPDTDEISFLKGDMFIVHNESEDGWMWVTNLRTDEQGLIVEDLVEEVGR [L33S]	-0.102 ± 0.025
